The subject of assay [1] is Ly-6G+ DC precursors and CD11b+ DC in spleen. Kind of assay: Flow cytometric analysis of GM-CSF induced expansion of DC and DC precursor in normal animals. The assay is classed as in vivo. Particulars: s.c., healthy C57BL/6 mice. Here is the method: Spleen Tissue Dissociation (for FIG. 6-8)
Briefly, mice were killed, and spleens were removed into cold culture medium and processed immediately. Surrounding mouse tissue and fat were removed. The spleens were minced into 2-3 mm fragments, and then crushed in cold culture medium using a flat tail of syringe piston. The spleen fragments were mixed up and down several times using a 1.5 mL micropipette with a tip cut to a diameter adapted to tissue fragment size. After that, the fragments were filtered through a […] nylon mesh cell strainer (BD Biosciences, San Diego, Calif., USA). The released cells were centrifuged at 1200 RPM for 2 min and stored in cold culture medium with 30% (v/v) FCS at 4° C. All cells from all incubation periods were pooled and counted.
Flow Cytometric Analysis of GM-CSF Induced Expansion of DC and DC Precursorin Normal Animals (for FIG. 6, 7)
52 male 6-8 weeks old C57BL/6 mice were randomly numbered and then divided into 13 groups depended on the random number. 12 groups were subcutaneously (s.c.) administered murine GM-CSF (PeproTech, Cat#96-315-03-1000) 2 μg on their back of the ribs, single injection from day 1 to 12 respectively. The last group was control. After 13 days, all animals were sacrificed. […]
A general note: A flow cytometer gives signals particle by particle.

Another assay deals with CD11b+ DC in spleen. Put plainly: Flow cytometric analysis of GM-CSF induced expansion of DC in B16 melanoma cell murine model. Format: in vivo, C57BL/6 mice. Conditions: s.c. The source says: Animal Model (for FIGS. 5-11)
The male immunocompetent C57BL/6 mice were purchased from Shanghai Experimental Animal Center (Shanghhai, China) and maintained in the animal facility at Tongji University (Shanghai, China) according to the animal research committee's guidelines of Tongji University. To establish the tumor-bearing animal model, the male immunocompetent C57BL/6 mice 6-8 weeks old, were subcutaneously (s.c.) inoculated on their back of the ribs with 2×10^6 B16 cells, and then monitored daily for tumor growth. After 6 days (when the tumors grew up to a mean tumor volume of around 70-100 mm^3), these tumor-bearing animals were randomly numbered and then divided into groups depended on the random number. Tumor volume was measured with a caliper each three days and calculated using the following formula: [L×W^2]/2 (L=length of tumor; W=width of tumor). […]
Briefly, mice were killed, and spleens were removed into cold culture medium and processed immediately. […] All cells from all incubation periods were pooled and counted. […]
63 male 6-8 weeks old C57BL/6 mice were subcutaneously (s.c.) inoculated on their back of the ribs with 2×10^6 B16 cells, and then monitored daily for tumor growth. […] After another 1.5, 2.5, 3.5 and 4.5 days, indicated groups were sacrificed and analyzed, respectively. […]

Assay [2] deals with CD8+ TIL infiltration in B16 tumor. Kind of assay: Immunofluorescence analysis of CD8+ TIL infiltration in tumor. Format: in vivo, C57BL/6 mice. Particulars: B16 tumor-bearing mice. The source says: Systemic Immunotherapeutic Combination Therapy (for FIG. 10, 11, 12)
72 male 6-8 weeks old C57BL/6 mice were subcutaneously (s.c.) inoculated on their back of the ribs with 2×10^6 B16 cells, and then monitored daily for tumor growth. These tumor-bearing animals were randomly numbered and then divided into 9 groups depended on the random number. Indicated groups were subjected to OVs (H101, 4×10^9 VPs) therapy i.t. and/or GM-CSF s.c. and/or PD-L1 mab (eBioscience, Cat#16-5982-85) i.p. or PBS (pH 7.4) only s.c. at indicated time points. After day 13, all animals were sacrificed and analyzed. Grouping and experiment design are illustrated in FIG. 17.
Immunofluorescence Analysis of CD8^+ TIL Infiltration in Tumor Using Systemic Immunotherapeutic Combination Therapy (for FIG. 12)
The level of CD8^+ TIL infiltration in tumor was determined by immunofluorescence staining. […] After the treatment with antifade mounting medium, fluorescence signals were detected under fluorescence microscope (BX43, OLYMPUS). Fluorescence images were analyzed using Image-Pro Plus 6.0 software and the histogram was made by GraphPad Prism 5 software and p<0.05 was considered statistically significant.

B1: murine GM-CSF: murine granulocyte-macrophage colony-stimulating factor (PeproTech, Cat#96-315-03-1000) (protein, UniProt P01587 18-141, looked up)
Granulocyte-macrophage …: APTRSPITVTRPWKHVEAIKEALNLLDDMPVTLNEEVEVVSNEFSFKKLTCVQTRLKIFEQGLRGNFTKLKGALNMTASYYQTYCPPTPETDCETQVTTYADFIDSLKTFLTDIPFECKKPGQK
In the case of B1, the “CD11b+ DC in spleen” value in assay [1] is “induces expansion of CD11b^+ DC at day 2-4”; in the assay with CD11b+ DC in spleen it was “induces up-regulation of CD11b^+ DC in spleen at Day 3.5”. Besides, the “Ly-6G+ DC precursors in spleen” value in assay [1] is recorded as “induces expansion of Ly-6G^+ DC precursors at day 1”. Further, the “CD8+ TIL infiltration in tumor” value in assay [2] was “induces medium CD8^+ TIL infiltration”.

Source of the values: patent US10980859B2, “In vivo individualized systemic immunotherapeutic method and device” (Hangzhou Converd Co., Ltd., priority 2013, dated 2021).
